Test results: US20250154242A1 (ADAFRE BIOSCIENCES, published 2025)

Biological target: TNFR
Assay: cell-based or functional assay

B1: cynomolgus TNFα (ligand)
chain: VRSSSRTPSDKPVAHVVANPQAEGQLQWLNRRANALVANGVELTDNQLVVPSEGLYLIYSQVLFKGQGCPSNHVLLTHTISRIAVSYQTKVNLLSAIKSPCQRETPEGAEAKPWYEPIYLGGVFQLEKGDRLSAEINLPDYLDFAESGQVYFGIIAL
modifications: biotinylated in the binding ELISA (sites not given)
EC50, stimulation of HEK-Blue TNFα cells (SEAP reporter): 3.1 pM
